Measured values published in patent US20090324602A1 (Biogen, published 2009).
Positions count from the first letter of the chain named. Names may count otherwise. “And” between values parts separate entries of the source, which are not always exact repeats. Equal entries are not always repeated. Where two headings read alike, the source gives them in different places.

Assays:
[1] = biological target: T1, huFn14-huFc fusion protein (human, UniProt Q9NP84 28-80); assay: competition ELISA on coated huFn14-huFc against a constant amount of biotinylated murine P4A8, OD450; value is C (midpoint) of the printed 4-P fit, x in ng/ml
T1 construct: also called hFn14-hFc; bivalent Fn14-Fc; not shown: human Fc

[2] = biological target: T2, human Fn14, full-length, expressed on the cell surface (human, UniProt Q9NP84 28-129); assay: FACS dilution titration on 293E cells transiently overexpressing human Fn14; value is C (midpoint) of the printed 4-P fit y=(A-D)/(1+(x/C)^B)+D, x in ug/ml
T2 construct: Also used for Fn14 on tumour cell lines (WiDr, A375) and in tissue sections; also called huFn14; hu Fn14

[3] = biological target: T3, mouse Fn14-mouse Fc (mouse, UniProt Q9CR75 28-80); assay: direct binding ELISA, mouse Fn14-mouse Fc coated at 2 µg/ml, HRP-goat anti-human IgG
T3 construct: not shown: mouse Fc

[4] = biological target: T2, human Fn14, full-length, expressed on …; assay: FACS direct binding titration on surface human Fn14; value is C (midpoint) of the printed 4-P fit y=(A-D)/(1+(x/C)^B)+D, x in ng/ml
[5] = biological target: T4, soluble monomeric human Fn14 protein (ectodomain with myc and His tags) (human); assay: SPR (Biacore), antibody amine-coupled on CM5, soluble monomeric human Fn14 0.3-30 nM as analyte, 1:1 fit
T4 construct: also called soluble Fn14 protein; soluble human Fn14

[6] = biological target: T2, human Fn14, full-length, expressed on …; assay: FACS on WiDr cells
[7] = biological target: T4, soluble monomeric human Fn14 protein …; assay: SPR (Biacore), antibody amine-coupled on CM5, soluble monomeric human Fn14 0.3-30 nM as analyte, KD = kd/ka
[8] = biological target: T5, rat Fn14, full-length, expressed on the cell surface (rat, UniProt Q9CR75 28-129 (mouse entry)); assay: FACS direct binding titration on surface rat Fn14; value is C (midpoint) of the printed 4-P fit y=(A-D)/(1+(x/C)^B)+D, x in ng/ml
T5 construct: also called pEAG2275

[9] = biological target: T6, human Fn14 M50A, expressed on the cell surface (human, UniProt Q9NP84 28-129); assay: FACS direct binding, cells expressing the huFn14 construct, MFI
T6 construct: also called pYL396

[10] = biological target: T7, human Fn14 R56K, expressed on the cell surface (human, UniProt Q9NP84 28-129); assay: as above
T7 construct: also called pYL397

[11] = biological target: T6, human Fn14 M50A, expressed on the cell …; assay: as above; remark: listed apart in the source
[12] = biological target: T8, human Fn14 T33Q, expressed on the cell surface (human, UniProt Q9NP84 28-129); assay: as above
T8 construct: also called pYL391

[13] = biological target: T9, human Fn14 W42A, expressed on the cell surface (human, UniProt Q9NP84 28-129); assay: as above
T9 construct: also called huFn14 W42A; pEAG2251

[14] = biological target: T10, human Fn14 H60K, expressed on the cell surface (human, UniProt Q9NP84 28-129); assay: as above
T10 construct: also called pYL399

[15] = biological target: T11, human Fn14 L65Q, expressed on the cell surface (human, UniProt Q9NP84 28-129); assay: as above
T11 construct: also called pYL393

[16] = biological target: T12, human Fn14 R56P, expressed on the cell surface (human, UniProt Q9NP84 28-129); assay: as above
T12 construct: also called pYL398

[17] = biological target: T13, human Fn14 S40R, expressed on the cell surface (human, UniProt Q9NP84 28-129); assay: as above
T13 construct: also called pYL392

[18] = biological target: T14, mouse Fn14, full-length, expressed on the cell surface (mouse, UniProt Q9CR75 28-129); assay: FACS direct binding titration on murine surface Fn14 (target per legend paragraph 91), MFI
T14 construct: also called murine Fn14; mu Fn14

[19] = biological target: T15, cynomolgus monkey Fn14, full-length, expressed on the cell surface (cynomolgus monkey, UniProt Q9NP84 28-129 (human entry)); assay: FACS direct binding titration on surface Fn14, MFI
T15 construct: also called cyno Fn14; pEAG2120

[20] = biological target: T5, rat Fn14, full-length, expressed on the …; assay: direct binding FACS
[21] = biological target: T14, mouse Fn14, full-length, expressed on …; assay: FACS titration on cells expressing surface Fn14, MFI against ng/ml anti-Fn14 mab

B1: humanized P4A8 (H1/L2) huIgG1, kappa (antibody, V domains shown)
VH: QVQLVQSGAEVKKPGASVKVSCKGSGYTFTDYGMHWVRQAPGQGLEWMGVISTYNGYTNYNQKFKGRVTMTVDKSTSTAYMELRSLRSDDTAVYYCARAYYGNLYYAMDYWGQGTLVTVSS
VL: DIVLTQSPASLAVSLGQRATISCRASKSVSTSSYSYMHWYQQKPGQPPKLLIKYASNLESGVPARFSGSGSGTDFILNIHPMEEDDTAMYFCQHSRELPFTFGGGTKLEIKR
notes: One of the 'six versions of huP4A8' (two heavy chains by three light chains) expressed transiently in 293E cells; also called version of huP4A8 H1/L2
Work on B1 yielded an IC50 [1] of 0.0408 µg/mL and an EC50 [2] of 0.178 µg/mL.

B2: humanized P4A8 (H1/L1) huIgG1, kappa (antibody)
heavy: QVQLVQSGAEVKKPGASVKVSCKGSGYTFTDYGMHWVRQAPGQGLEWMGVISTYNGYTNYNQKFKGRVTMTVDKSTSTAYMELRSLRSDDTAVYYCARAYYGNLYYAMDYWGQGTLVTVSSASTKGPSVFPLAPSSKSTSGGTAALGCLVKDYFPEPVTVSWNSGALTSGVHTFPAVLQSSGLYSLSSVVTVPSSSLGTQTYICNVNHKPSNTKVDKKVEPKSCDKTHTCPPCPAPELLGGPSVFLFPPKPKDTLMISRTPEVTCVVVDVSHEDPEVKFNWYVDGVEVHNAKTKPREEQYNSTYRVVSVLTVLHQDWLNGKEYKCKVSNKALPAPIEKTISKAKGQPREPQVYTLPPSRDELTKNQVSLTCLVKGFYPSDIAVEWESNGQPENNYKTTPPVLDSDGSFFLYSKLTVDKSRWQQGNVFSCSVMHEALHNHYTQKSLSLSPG
light: DIVLTQSPASLAVSLGQRATISCRASKSVSTSSYSYMHWYQQKPGQPPKLLIKYASNLESGVPARFSGSGSGTDFSLNIHPMEEDDTAMYFCQHSRELPFTFGGGTKLEIKRTVAAPSVFIFPPSDEQLKSGTASVVCLLNNFYPREAKVQWKVDNALQSGNSQESVTEQDSKDSTYSLSSTLTLSKADYEKHKVYACEVTHQGLSSPVTKSFNRGEC
notes: H1 heavy chain (pYL310) with L1 kappa light chain (pYL321); also called huP4A8; hP4A8.IgG1
B2 was tested, and the EC50 [3] was roughly 6.79 ng/mL, the EC50 [4] was 0.0766 µg/mL and the koff [5] was 0.0029 s⁻¹ and 0.003 s⁻¹. For the same binder, the kon [5] was 1.7e+06 M⁻¹ s⁻¹ and 1.8e+06 M⁻¹ s⁻¹, the IC50 [1] was 0.0352 µg/mL and the EC50 [6] was 0.12 nM. For the same binder, the Kd [7] was 2.6 nM and 1.7 nM, the EC50 [8] was 0.0586 µg/mL and the EC50 [2] was 0.25 µg/mL.

B3: humanized P4A8 (H1/L3) huIgG1, kappa (antibody, V domains shown)
VH: B1 VH
VL: B1 VL with M89T, F91Y
notes: One of the 'six versions of huP4A8'; also called version of huP4A8 H1/L3
B3 gave an IC50 [1] of 0.0316 µg/mL and an EC50 [2] of 0.172 µg/mL.

B4: humanized P4A8 (H2/L1) huIgG1, kappa (antibody, V domains shown)
VH: B1 VH with M48I, V68A
VL: B1 VL with I76S
notes: One of the 'six versions of huP4A8'; also called version of huP4A8 H2/L1
B4 was tested, and the IC50 [1] was 0.0275 µg/mL and the EC50 [2] was 0.175 µg/mL.

B5: humanized P4A8 (H2/L2) huIgG1, kappa (antibody, V domains shown)
VH: B1 VH with M48I, V68A
VL: B1 VL
notes: One of the 'six versions of huP4A8'; also called version of huP4A8 H2/L2
In the case of B5, the IC50 [1] is reported as 0.0326 µg/mL and the EC50 [2] is reported as 0.179 µg/mL.

B6: humanized P4A8 (H2/L3) huIgG1, kappa (antibody, V domains shown)
VH: B1 VH with M48I, V68A
VL: B1 VL with M89T, F91Y
notes: One of the 'six versions of huP4A8'; also called version of huP4A8 H2/L3
With B6 the IC50 [1] was 0.0357 µg/mL and the EC50 [2] was 0.175 µg/mL.

B7: monoclonal antibody 1.P4A8.3C7 (P4A8), murine (antibody, V domains shown)
VH: QVQLQQSGPEVVRPGVSVKISCKGSGYTFTDYGMHWVKQSHAKSLEWIGVISTYNGYTNYNQKFKGKATMTVDKSSSTAYMELARLTSEDSAIYYCARAYYGNLYYAMDYWGQGTSVTVSS
VL: DIVLTQSPASLAVSLGQRATISCRASKSVSTSSYSYMHWYQQKPGQPPKLLIKYASNLESGVPARFSGSGSGTDFILNIHPVEEEDAATYYCQHSRELPFTFGSGTKLEIK
notes: Mouse hybridoma mAb (ATCC PTA-9947); also called muP4A8; murine P4A8 mAb
B7: binds [9]; binds [10].

B8: monoclonal antibody 1.P3G5.1E4 (P3G5), murine (antibody, V domains shown)
VH: B7 VH with M34I
VL: B7 VL with S26N
notes: Mouse hybridoma mAb (ATCC PTA-9949)
B8: binds [11]; binds [12]; binds [13]. B8: binds [14]; binds [15]; binds [16]. For the same binder, the binding result [17] was “binds”, the EC50 [18] was 2.01 ng/mL and the EC50 [19] was 1.19 ng/mL. B8: binds [20].

B9: monoclonal antibody 1.P2D3.3D5 (P2D3), murine (antibody, V domains shown)
VH: not shown
VL: B7 VL with A55T, F100W, S104G
notes: Mouse hybridoma mAb (ATCC PTA-9948)
B9 was tested, and the EC50 [18] was 2.26 ng/mL, the binding result [20] was “binds” and the EC50 [21] was 4.78 ng/mL.

B10: monoclonal antibody P3D8, murine (antibody, V domains shown)
VH: not shown
VL: B7 VL with A55T, F100W, S104G
For B10, the EC50 [18] was 2.38 ng/mL and the binding result [20] was “binds”.

B11: humanized P4A8 (H1/L1) aglycosylated S228P/T299A huIgG4, kappa (antibody)
heavy: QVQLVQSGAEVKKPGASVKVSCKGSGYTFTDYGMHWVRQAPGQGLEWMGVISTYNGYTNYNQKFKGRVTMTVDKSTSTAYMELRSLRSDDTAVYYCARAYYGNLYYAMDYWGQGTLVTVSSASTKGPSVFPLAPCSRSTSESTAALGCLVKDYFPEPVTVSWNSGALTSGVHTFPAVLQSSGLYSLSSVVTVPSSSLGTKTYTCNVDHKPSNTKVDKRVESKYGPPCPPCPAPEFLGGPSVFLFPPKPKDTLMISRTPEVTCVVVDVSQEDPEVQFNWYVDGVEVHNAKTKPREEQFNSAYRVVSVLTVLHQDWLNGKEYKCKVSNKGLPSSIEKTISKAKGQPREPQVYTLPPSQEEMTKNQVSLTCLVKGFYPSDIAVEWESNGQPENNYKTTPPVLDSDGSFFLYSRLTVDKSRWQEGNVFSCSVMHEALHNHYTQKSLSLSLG
light: B2 light
notes: also called huP4A8-aglyG4P; hP4A8.IgG4Pagly
B11 was tested, and the EC50 [4] was 0.0916 µg/mL, the koff [5] was 0.0029 s⁻¹ and 0.0047 s⁻¹ and the kon [5] was 2e+06 M⁻¹ s⁻¹ and 2.9e+06 M⁻¹ s⁻¹. For the same binder, the Kd [7] was 3.4 nM and 2.2 nM and the EC50 [8] was 0.0721 µg/mL.
